# From paper doi:10.1101/2022.06.24.497440
# Experiments:
# [1] = molecular target: fluorescently labeled CaV1.2 IQ peptide, wildtype (UniProt P15381); assay: fluorescence polarisation
# [2] = molecular target: fluorescently labeled CaV1.2 IQ peptide K1662E (UniProt P15381); assay: fluorescence polarisation
# [3] = molecular target: CaV1.2 IQ motif peptide Y1657D (UniProt P15381); assay: ITC
# [4] = molecular target: CaV1.2 IQ motif peptide Y1649A (UniProt P15381); assay: ITC
# [5] = molecular target: CaV1.2 IQ motif peptide F1658D (UniProt P15381); assay: ITC
# [6] = molecular target: CaV1.2 IQ motif peptide I1654A (UniProt P15381); assay: ITC
# [7] = molecular target: CaV1.2 IQ motif peptide F1658A (UniProt P15381); assay: ITC
# [8] = molecular target: fluorescently labeled CaV1.2 IQ peptide Y1657D (UniProt P15381); assay: fluorescence polarisation
Substance,Kd [1] [nM],Kd [2] [nM],Kd [3] [µM],Kd [4] [nM],Kd [5] [µM],Kd [6] [nM],Kd [7] [nM],Kd [8] [µM]
"calmodulin mutant D21A/D23A/D25A/E32Q/D57A/D59A/N61A/E68Q (CaM12’), Ca2+ bound at EF3 and EF4 (from UniProt P0DP23 1-149) (natural protein)",< 100,< 100,8,26,4,60,32,
"calmodulin, wild type, Ca2+-free (apoCaM) (from UniProt P0DP23 1-149) (natural protein)",,,,,,,,60
